The target of the data set is cell-surface nucleolin (NCL) (UniProt P19338). Description: competition. The following applies: MST: 300 nM FAM-aptamer, NCL 1.95 nM-4 uM, binding buffer not specified, 25 C, 15 min; AP1-AP6 and Mut folded in 100 mM KCl, 10 mM K3PO4 pH 7.0; AS1411 in …; scale: % decrease of anti-NCL fluorescence at 4 uM.
Sequence of cell-surface nucleolin (NCL) (P19338 whole entry): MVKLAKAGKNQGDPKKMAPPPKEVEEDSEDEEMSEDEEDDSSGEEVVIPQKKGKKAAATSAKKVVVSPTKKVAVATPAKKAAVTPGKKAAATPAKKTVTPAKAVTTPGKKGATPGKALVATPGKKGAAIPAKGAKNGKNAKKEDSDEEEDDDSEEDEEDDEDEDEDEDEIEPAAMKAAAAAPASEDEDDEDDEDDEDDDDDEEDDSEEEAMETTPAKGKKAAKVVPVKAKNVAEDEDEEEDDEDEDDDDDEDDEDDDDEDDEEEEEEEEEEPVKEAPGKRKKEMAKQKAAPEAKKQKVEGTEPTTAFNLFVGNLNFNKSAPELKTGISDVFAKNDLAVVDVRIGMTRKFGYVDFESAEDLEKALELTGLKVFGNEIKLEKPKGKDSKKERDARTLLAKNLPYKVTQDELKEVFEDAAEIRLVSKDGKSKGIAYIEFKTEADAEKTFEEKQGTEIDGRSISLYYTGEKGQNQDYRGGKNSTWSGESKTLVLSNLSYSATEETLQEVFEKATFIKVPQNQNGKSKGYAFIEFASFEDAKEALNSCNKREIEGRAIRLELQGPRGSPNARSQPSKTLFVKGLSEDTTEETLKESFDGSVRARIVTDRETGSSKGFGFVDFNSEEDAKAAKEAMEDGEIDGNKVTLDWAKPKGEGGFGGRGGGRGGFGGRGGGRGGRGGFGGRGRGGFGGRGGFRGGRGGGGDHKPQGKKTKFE

In turn, GUUAGGGUUUGGGAUUG [AP1] returned a binding signal of 50.
